# Test results published in the supplement of paper PMC10266784.
# B1: library; numbered along this chain (parent)
# chain: MAAAAAAAAEQQSSNGPVKKSMREKAVERRSVNKEHNSNFKAGYIPIDEDRLHKTGLRGRKGNLAICVIILLFILAVINLIITLVIWAVIRIGPNGCDSMEFHESGLLRFKQVSDMGVIHPLYKSTVGGRRNENLVITGNNQPIVFQQGTTKLSVENNKTSITSDIGMQFFDPRTQNILFSTDYETHEFHLPSGVKSLNVQKASTERITSNATSDLNIKVDGRAIVRGNEGVFIMGKTIEFHMGGNMELKAENSIILNGSVMVSTTRLPSSSSGDQLGSGDWVRYKLCMCADGTLFKVQVTSQNMGCQISDNPCGNTH
# Variants of: B1
# Assay: SGCB cell-surface expression functional score (HA stain, bin4 vs bin1, normalised to synonymous) (log10 ratio); higher = more cell-surface SGCB (functional)
# Method in brief: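 The functional score is a log ratio of variant frequency in the highest versus the lowest intensity bin, expressed as a median over codons and duplicate transductions. Codon-saturation libraries of HA-tagged, YFP-fused human beta-sarcoglycan were transduced by lentivirus at MOI <0.1 into HEK293 cells stably expressing alpha-, gamma- and delta-sarcoglycan, and the cells were stained on ice with Alexa Fluor 647 anti-HA, fixed and sorted into four 5% intensity bins before amplicon sequencing. Synonymous variants were scaled to mean 0, SD 0.5 within each section.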
row,Variant,SGCB cell-surface expression functional score (log10)
1,MAAAAAAAAEQQSSNGPVKKSMREKAVERRSVNKEHNSNFKAGYIPIDEDRLHKTGLRGRKGNLAICVIILLFILAVINLIITLVIWAVIRIGPNGCDSMEFHESGLLRFKQVSDMGVIHPLYKSTVGGRRNENLVITGNNQPIVFQQGTTKLSVENNKTSITSDPGMQFFDPRTQNILFSTDYETHEFHLPSGVKSLNVQKASTERITSNATSDLNIKVDGRAIVRGNEGVFIMGKTIEFHMGGNMELKAENSIILNGSVMVSTTRLPSSSSGDQLGSGDWVRYKLCMCADGTLFKVQVTSQNMGCQISDNPCGNTH [I166P],-1.11
2,MAAAAAAAAEQQSSNGPVKKSMREKAVERRSVNKEHNSNFKAGYIPIDEDRLHKTGLRGRKGNLAICVIILLFILAVINLIITLVIWAVIRIGPNGCDSMEFHESGLLRFKQVSDMGVIHPLYKSTVGGRRNENLVITGNNQPIVFQQGTTKLSVENNKTSITSDQGMQFFDPRTQNILFSTDYETHEFHLPSGVKSLNVQKASTERITSNATSDLNIKVDGRAIVRGNEGVFIMGKTIEFHMGGNMELKAENSIILNGSVMVSTTRLPSSSSGDQLGSGDWVRYKLCMCADGTLFKVQVTSQNMGCQISDNPCGNTH [I166Q],-0.21
3,MAAAAAAAAEQQSSNGPVKKSMREKAVERRSVNKEHNSNFKAGYIPIDEDRLHKTGLRGRKGNLAICVIILLFILAVINLIITLVIWAVIRIGPNGCDSMEFHESGLLRFKQVSDMGVIHPLYKSTVGGRRNENLVITGNNQPIVFQQGTTKLSVENNKTSITSDVGMQFFDPRTQNILFSTDYETHEFHLPSGVKSLNVQKASTERITSNATSDLNIKVDGRAIVRGNEGVFIMGKTIEFHMGGNMELKAENSIILNGSVMVSTTRLPSSSSGDQLGSGDWVRYKLCMCADGTLFKVQVTSQNMGCQISDNPCGNTH [I166V],0.13
4,MAAAAAAAAEQQSSNGPVKKSMREKAVERRSVNKEHNSNFKAGYIPIDEDRLHKTGLRGRKGNLAICVIILLFILAVINLIITLVIWAVIRIGPNGCDSMEFHESGLLRFKQVSDMGVIHPLYKSTVGGRRNENLVITGNNQPIVFQQGTTKLSVENNKTSITSDYGMQFFDPRTQNILFSTDYETHEFHLPSGVKSLNVQKASTERITSNATSDLNIKVDGRAIVRGNEGVFIMGKTIEFHMGGNMELKAENSIILNGSVMVSTTRLPSSSSGDQLGSGDWVRYKLCMCADGTLFKVQVTSQNMGCQISDNPCGNTH [I166Y],0.18
5,MAAAAAAAAEQQSSNGPVKKSMREKAVERRSVNKEHNSNFKAGYIPIDEDRLHKTGLRGRKGNLAICVIILLFILAVINLIITLVIWAVIRIGPNGCDSMEFHESGLLRFKQVSDMGVIHPLYKSTVGGRRNENLVITGNNQPIVFQQGTTKLSVENNKTSITSDRGMQFFDPRTQNILFSTDYETHEFHLPSGVKSLNVQKASTERITSNATSDLNIKVDGRAIVRGNEGVFIMGKTIEFHMGGNMELKAENSIILNGSVMVSTTRLPSSSSGDQLGSGDWVRYKLCMCADGTLFKVQVTSQNMGCQISDNPCGNTH [I166R],-0.29
6,MAAAAAAAAEQQSSNGPVKKSMREKAVERRSVNKEHNSNFKAGYIPIDEDRLHKTGLRGRKGNLAICVIILLFILAVINLIITLVIWAVIRIGPNGCDSMEFHESGLLRFKQVSDMGVIHPLYKSTVGGRRNENLVITGNNQPIVFQQGTTKLSVENNKTSITSDWGMQFFDPRTQNILFSTDYETHEFHLPSGVKSLNVQKASTERITSNATSDLNIKVDGRAIVRGNEGVFIMGKTIEFHMGGNMELKAENSIILNGSVMVSTTRLPSSSSGDQLGSGDWVRYKLCMCADGTLFKVQVTSQNMGCQISDNPCGNTH [I166W],-2.63
7,MAAAAAAAAEQQSSNGPVKKSMREKAVERRSVNKEHNSNFKAGYIPIDEDRLHKTGLRGRKGNLAICVIILLFILAVINLIITLVIWAVIRIGPNGCDSMEFHESGLLRFKQVSDMGVIHPLYKSTVGGRRNENLVITGNNQPIVFQQGTTKLSVENNKTSITSDHGMQFFDPRTQNILFSTDYETHEFHLPSGVKSLNVQKASTERITSNATSDLNIKVDGRAIVRGNEGVFIMGKTIEFHMGGNMELKAENSIILNGSVMVSTTRLPSSSSGDQLGSGDWVRYKLCMCADGTLFKVQVTSQNMGCQISDNPCGNTH [I166H],-0.1
8,MAAAAAAAAEQQSSNGPVKKSMREKAVERRSVNKEHNSNFKAGYIPIDEDRLHKTGLRGRKGNLAICVIILLFILAVINLIITLVIWAVIRIGPNGCDSMEFHESGLLRFKQVSDMGVIHPLYKSTVGGRRNENLVITGNNQPIVFQQGTTKLSVENNKTSITSDMGMQFFDPRTQNILFSTDYETHEFHLPSGVKSLNVQKASTERITSNATSDLNIKVDGRAIVRGNEGVFIMGKTIEFHMGGNMELKAENSIILNGSVMVSTTRLPSSSSGDQLGSGDWVRYKLCMCADGTLFKVQVTSQNMGCQISDNPCGNTH [I166M],-0.16
9,MAAAAAAAAEQQSSNGPVKKSMREKAVERRSVNKEHNSNFKAGYIPIDEDRLHKTGLRGRKGNLAICVIILLFILAVINLIITLVIWAVIRIGPNGCDSMEFHESGLLRFKQVSDMGVIHPLYKSTVGGRRNENLVITGNNQPIVFQQGTTKLSVENNKTSITSDSGMQFFDPRTQNILFSTDYETHEFHLPSGVKSLNVQKASTERITSNATSDLNIKVDGRAIVRGNEGVFIMGKTIEFHMGGNMELKAENSIILNGSVMVSTTRLPSSSSGDQLGSGDWVRYKLCMCADGTLFKVQVTSQNMGCQISDNPCGNTH [I166S],-0.76
10,MAAAAAAAAEQQSSNGPVKKSMREKAVERRSVNKEHNSNFKAGYIPIDEDRLHKTGLRGRKGNLAICVIILLFILAVINLIITLVIWAVIRIGPNGCDSMEFHESGLLRFKQVSDMGVIHPLYKSTVGGRRNENLVITGNNQPIVFQQGTTKLSVENNKTSITSDLGMQFFDPRTQNILFSTDYETHEFHLPSGVKSLNVQKASTERITSNATSDLNIKVDGRAIVRGNEGVFIMGKTIEFHMGGNMELKAENSIILNGSVMVSTTRLPSSSSGDQLGSGDWVRYKLCMCADGTLFKVQVTSQNMGCQISDNPCGNTH [I166L],-0.38
11,MAAAAAAAAEQQSSNGPVKKSMREKAVERRSVNKEHNSNFKAGYIPIDEDRLHKTGLRGRKGNLAICVIILLFILAVINLIITLVIWAVIRIGPNGCDSMEFHESGLLRFKQVSDMGVIHPLYKSTVGGRRNENLVITGNNQPIVFQQGTTKLSVENNKTSITSDKGMQFFDPRTQNILFSTDYETHEFHLPSGVKSLNVQKASTERITSNATSDLNIKVDGRAIVRGNEGVFIMGKTIEFHMGGNMELKAENSIILNGSVMVSTTRLPSSSSGDQLGSGDWVRYKLCMCADGTLFKVQVTSQNMGCQISDNPCGNTH [I166K],-0.2
12,MAAAAAAAAEQQSSNGPVKKSMREKAVERRSVNKEHNSNFKAGYIPIDEDRLHKTGLRGRKGNLAICVIILLFILAVINLIITLVIWAVIRIGPNGCDSMEFHESGLLRFKQVSDMGVIHPLYKSTVGGRRNENLVITGNNQPIVFQQGTTKLSVENNKTSITSDTGMQFFDPRTQNILFSTDYETHEFHLPSGVKSLNVQKASTERITSNATSDLNIKVDGRAIVRGNEGVFIMGKTIEFHMGGNMELKAENSIILNGSVMVSTTRLPSSSSGDQLGSGDWVRYKLCMCADGTLFKVQVTSQNMGCQISDNPCGNTH [I166T],0.36
13,MAAAAAAAAEQQSSNGPVKKSMREKAVERRSVNKEHNSNFKAGYIPIDEDRLHKTGLRGRKGNLAICVIILLFILAVINLIITLVIWAVIRIGPNGCDSMEFHESGLLRFKQVSDMGVIHPLYKSTVGGRRNENLVITGNNQPIVFQQGTTKLSVENNKTSITSDNGMQFFDPRTQNILFSTDYETHEFHLPSGVKSLNVQKASTERITSNATSDLNIKVDGRAIVRGNEGVFIMGKTIEFHMGGNMELKAENSIILNGSVMVSTTRLPSSSSGDQLGSGDWVRYKLCMCADGTLFKVQVTSQNMGCQISDNPCGNTH [I166N],-0.78
14,MAAAAAAAAEQQSSNGPVKKSMREKAVERRSVNKEHNSNFKAGYIPIDEDRLHKTGLRGRKGNLAICVIILLFILAVINLIITLVIWAVIRIGPNGCDSMEFHESGLLRFKQVSDMGVIHPLYKSTVGGRRNENLVITGNNQPIVFQQGTTKLSVENNKTSITSDIEMQFFDPRTQNILFSTDYETHEFHLPSGVKSLNVQKASTERITSNATSDLNIKVDGRAIVRGNEGVFIMGKTIEFHMGGNMELKAENSIILNGSVMVSTTRLPSSSSGDQLGSGDWVRYKLCMCADGTLFKVQVTSQNMGCQISDNPCGNTH [G167E],-1.93
15,MAAAAAAAAEQQSSNGPVKKSMREKAVERRSVNKEHNSNFKAGYIPIDEDRLHKTGLRGRKGNLAICVIILLFILAVINLIITLVIWAVIRIGPNGCDSMEFHESGLLRFKQVSDMGVIHPLYKSTVGGRRNENLVITGNNQPIVFQQGTTKLSVENNKTSITSDICMQFFDPRTQNILFSTDYETHEFHLPSGVKSLNVQKASTERITSNATSDLNIKVDGRAIVRGNEGVFIMGKTIEFHMGGNMELKAENSIILNGSVMVSTTRLPSSSSGDQLGSGDWVRYKLCMCADGTLFKVQVTSQNMGCQISDNPCGNTH [G167C],-2.06
16,MAAAAAAAAEQQSSNGPVKKSMREKAVERRSVNKEHNSNFKAGYIPIDEDRLHKTGLRGRKGNLAICVIILLFILAVINLIITLVIWAVIRIGPNGCDSMEFHESGLLRFKQVSDMGVIHPLYKSTVGGRRNENLVITGNNQPIVFQQGTTKLSVENNKTSITSDIFMQFFDPRTQNILFSTDYETHEFHLPSGVKSLNVQKASTERITSNATSDLNIKVDGRAIVRGNEGVFIMGKTIEFHMGGNMELKAENSIILNGSVMVSTTRLPSSSSGDQLGSGDWVRYKLCMCADGTLFKVQVTSQNMGCQISDNPCGNTH [G167F],-1.3
17,MAAAAAAAAEQQSSNGPVKKSMREKAVERRSVNKEHNSNFKAGYIPIDEDRLHKTGLRGRKGNLAICVIILLFILAVINLIITLVIWAVIRIGPNGCDSMEFHESGLLRFKQVSDMGVIHPLYKSTVGGRRNENLVITGNNQPIVFQQGTTKLSVENNKTSITSDIAMQFFDPRTQNILFSTDYETHEFHLPSGVKSLNVQKASTERITSNATSDLNIKVDGRAIVRGNEGVFIMGKTIEFHMGGNMELKAENSIILNGSVMVSTTRLPSSSSGDQLGSGDWVRYKLCMCADGTLFKVQVTSQNMGCQISDNPCGNTH [G167A],-0.48
18,MAAAAAAAAEQQSSNGPVKKSMREKAVERRSVNKEHNSNFKAGYIPIDEDRLHKTGLRGRKGNLAICVIILLFILAVINLIITLVIWAVIRIGPNGCDSMEFHESGLLRFKQVSDMGVIHPLYKSTVGGRRNENLVITGNNQPIVFQQGTTKLSVENNKTSITSDIDMQFFDPRTQNILFSTDYETHEFHLPSGVKSLNVQKASTERITSNATSDLNIKVDGRAIVRGNEGVFIMGKTIEFHMGGNMELKAENSIILNGSVMVSTTRLPSSSSGDQLGSGDWVRYKLCMCADGTLFKVQVTSQNMGCQISDNPCGNTH [G167D],-1.19
19,MAAAAAAAAEQQSSNGPVKKSMREKAVERRSVNKEHNSNFKAGYIPIDEDRLHKTGLRGRKGNLAICVIILLFILAVINLIITLVIWAVIRIGPNGCDSMEFHESGLLRFKQVSDMGVIHPLYKSTVGGRRNENLVITGNNQPIVFQQGTTKLSVENNKTSITSDIHMQFFDPRTQNILFSTDYETHEFHLPSGVKSLNVQKASTERITSNATSDLNIKVDGRAIVRGNEGVFIMGKTIEFHMGGNMELKAENSIILNGSVMVSTTRLPSSSSGDQLGSGDWVRYKLCMCADGTLFKVQVTSQNMGCQISDNPCGNTH [G167H],-0.66
